Square brackets hold non-standard residues; d marks the D form. Ends that are not written are not given here. Dip = N[C@H](C(=O)O)C(c1ccccc1)c1ccccc1; Orn = NCCC[C@H](N)C(=O)O; Aib = CC(C)(N)C(=O)O
Experiments:
human IR (HIR) = human IR (HIR) (Homo sapiens, UniProt P06213); assay: Human IR affinity (Kd); assay type: binding; conditions: Kd value expressed relative to that of human insulin in the same assay
[1] = target: insulin receptor on mouse adipocytes (mouse, UniProt P15208 28-1372); assay: cell-based or functional assay
[2] = target: T1, pig insulin receptor isoform without exon 11 (pig, UniProt F1SCK8 28-746; F1SCK8 751-1370); assay: receptor binding, standard methods (FIG. 2)
T1 construct: also called PIR-11; PIR - 11
Text: (§1) A number of IRBPs (S519; S557; S597; S636; S667; S733; S671; S660; S696; S574; S700; S626; and S726), some of which described in the prior patent documents, were applied to A and B isoforms (−11 and +11 isoforms) of the human, rat, and pig insulin receptors (HIR, RIR, and PIR) using standard methods.

[3] = target: T2, rat insulin receptor isoform without exon 11 (rat, UniProt P15127-2 27-1371, limits assumed); assay: receptor binding, standard methods (FIG. 2)
T2 construct: also called RIR-11; RIR - 11
Text: as §1

[4] = target: T3, human insulin receptor isoform without exon 11 (human, UniProt P06213-2 28-1370, limits assumed); assay: receptor binding, standard methods (FIG. 2)
T3 construct: also called HIR-11; HIR - 11
Text: as §1

[5] = target: human insulin receptor isoform with exon 11 (human) (UniProt P06213); assay: receptor binding, standard methods (FIG. 2)
[6] = target: rat insulin receptor isoform with exon 11 (rat) (UniProt P15127); assay: receptor binding, standard methods (FIG. 2)
rat insulin receptor isoform with exon 11 (rat), sequence (P15127 27-1383, stated change not applied): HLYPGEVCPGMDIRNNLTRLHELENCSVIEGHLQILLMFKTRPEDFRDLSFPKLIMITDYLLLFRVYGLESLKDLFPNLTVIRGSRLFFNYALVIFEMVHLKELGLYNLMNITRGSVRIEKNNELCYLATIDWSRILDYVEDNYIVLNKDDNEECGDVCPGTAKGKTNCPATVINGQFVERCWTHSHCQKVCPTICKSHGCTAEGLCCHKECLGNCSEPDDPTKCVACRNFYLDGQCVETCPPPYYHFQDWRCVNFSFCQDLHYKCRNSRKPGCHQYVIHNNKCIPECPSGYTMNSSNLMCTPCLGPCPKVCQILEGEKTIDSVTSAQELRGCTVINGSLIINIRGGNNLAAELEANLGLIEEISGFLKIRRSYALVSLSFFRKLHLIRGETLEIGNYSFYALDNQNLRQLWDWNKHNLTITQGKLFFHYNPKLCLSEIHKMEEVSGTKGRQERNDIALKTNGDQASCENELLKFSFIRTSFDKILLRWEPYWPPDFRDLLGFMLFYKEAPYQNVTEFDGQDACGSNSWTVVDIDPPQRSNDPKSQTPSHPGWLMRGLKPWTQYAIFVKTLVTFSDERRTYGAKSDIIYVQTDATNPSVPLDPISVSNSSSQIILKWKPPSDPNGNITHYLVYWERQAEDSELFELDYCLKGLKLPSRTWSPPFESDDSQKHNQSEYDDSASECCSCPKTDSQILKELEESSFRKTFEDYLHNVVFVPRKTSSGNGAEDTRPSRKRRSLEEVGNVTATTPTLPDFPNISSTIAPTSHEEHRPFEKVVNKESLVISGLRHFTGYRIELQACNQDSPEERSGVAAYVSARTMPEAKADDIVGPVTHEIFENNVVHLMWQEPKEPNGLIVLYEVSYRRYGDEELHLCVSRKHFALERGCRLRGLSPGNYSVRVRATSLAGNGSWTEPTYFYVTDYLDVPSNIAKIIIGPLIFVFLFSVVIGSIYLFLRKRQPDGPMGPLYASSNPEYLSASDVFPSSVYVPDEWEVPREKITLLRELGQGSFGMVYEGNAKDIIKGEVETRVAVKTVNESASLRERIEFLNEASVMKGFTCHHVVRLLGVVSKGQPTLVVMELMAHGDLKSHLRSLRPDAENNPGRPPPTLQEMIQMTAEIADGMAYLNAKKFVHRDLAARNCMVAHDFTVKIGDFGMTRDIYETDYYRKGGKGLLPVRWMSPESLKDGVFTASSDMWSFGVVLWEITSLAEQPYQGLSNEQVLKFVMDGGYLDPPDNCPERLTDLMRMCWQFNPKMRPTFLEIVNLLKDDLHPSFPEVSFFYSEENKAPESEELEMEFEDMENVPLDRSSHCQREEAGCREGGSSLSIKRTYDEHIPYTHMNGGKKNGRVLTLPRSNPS

insulin receptor on mouse adipocytes, sequence (P15208 28-1372): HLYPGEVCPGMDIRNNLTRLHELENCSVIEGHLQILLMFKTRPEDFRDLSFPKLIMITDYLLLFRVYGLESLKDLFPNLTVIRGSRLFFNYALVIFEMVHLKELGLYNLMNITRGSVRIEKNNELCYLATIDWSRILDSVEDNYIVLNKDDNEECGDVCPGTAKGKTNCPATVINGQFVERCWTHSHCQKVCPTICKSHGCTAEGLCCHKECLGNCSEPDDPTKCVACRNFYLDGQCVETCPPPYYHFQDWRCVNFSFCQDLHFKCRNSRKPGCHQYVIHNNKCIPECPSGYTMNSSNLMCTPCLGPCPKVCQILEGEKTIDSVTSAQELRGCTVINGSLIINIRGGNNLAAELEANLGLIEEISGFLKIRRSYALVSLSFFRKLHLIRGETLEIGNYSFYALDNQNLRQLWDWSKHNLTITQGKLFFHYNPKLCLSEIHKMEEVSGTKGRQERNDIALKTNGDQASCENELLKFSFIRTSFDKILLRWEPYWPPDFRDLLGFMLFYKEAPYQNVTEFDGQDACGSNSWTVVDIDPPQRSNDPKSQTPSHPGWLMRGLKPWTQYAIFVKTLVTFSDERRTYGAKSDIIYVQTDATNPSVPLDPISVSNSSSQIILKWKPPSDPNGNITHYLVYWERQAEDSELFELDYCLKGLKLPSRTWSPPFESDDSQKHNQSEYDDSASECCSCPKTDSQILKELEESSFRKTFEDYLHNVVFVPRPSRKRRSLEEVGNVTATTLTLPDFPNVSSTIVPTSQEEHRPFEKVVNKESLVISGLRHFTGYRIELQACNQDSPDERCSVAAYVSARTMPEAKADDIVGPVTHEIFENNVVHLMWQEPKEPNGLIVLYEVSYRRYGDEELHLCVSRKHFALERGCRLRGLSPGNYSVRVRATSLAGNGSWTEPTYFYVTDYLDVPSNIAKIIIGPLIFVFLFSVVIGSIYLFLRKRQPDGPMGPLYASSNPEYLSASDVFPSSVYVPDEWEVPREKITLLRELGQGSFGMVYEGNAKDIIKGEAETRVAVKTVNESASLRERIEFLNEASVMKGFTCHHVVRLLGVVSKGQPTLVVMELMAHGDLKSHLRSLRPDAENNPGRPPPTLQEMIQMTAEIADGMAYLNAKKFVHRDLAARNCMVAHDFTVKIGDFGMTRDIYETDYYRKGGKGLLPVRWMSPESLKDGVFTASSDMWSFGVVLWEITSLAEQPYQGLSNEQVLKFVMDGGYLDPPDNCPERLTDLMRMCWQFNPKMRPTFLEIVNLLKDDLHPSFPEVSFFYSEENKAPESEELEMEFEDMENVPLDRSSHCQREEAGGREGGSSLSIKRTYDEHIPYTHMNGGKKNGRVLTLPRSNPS
T1 sequence (alpha, as listed by the source limits assumed, stated change not applied, form in doubt, chain 1 of 2): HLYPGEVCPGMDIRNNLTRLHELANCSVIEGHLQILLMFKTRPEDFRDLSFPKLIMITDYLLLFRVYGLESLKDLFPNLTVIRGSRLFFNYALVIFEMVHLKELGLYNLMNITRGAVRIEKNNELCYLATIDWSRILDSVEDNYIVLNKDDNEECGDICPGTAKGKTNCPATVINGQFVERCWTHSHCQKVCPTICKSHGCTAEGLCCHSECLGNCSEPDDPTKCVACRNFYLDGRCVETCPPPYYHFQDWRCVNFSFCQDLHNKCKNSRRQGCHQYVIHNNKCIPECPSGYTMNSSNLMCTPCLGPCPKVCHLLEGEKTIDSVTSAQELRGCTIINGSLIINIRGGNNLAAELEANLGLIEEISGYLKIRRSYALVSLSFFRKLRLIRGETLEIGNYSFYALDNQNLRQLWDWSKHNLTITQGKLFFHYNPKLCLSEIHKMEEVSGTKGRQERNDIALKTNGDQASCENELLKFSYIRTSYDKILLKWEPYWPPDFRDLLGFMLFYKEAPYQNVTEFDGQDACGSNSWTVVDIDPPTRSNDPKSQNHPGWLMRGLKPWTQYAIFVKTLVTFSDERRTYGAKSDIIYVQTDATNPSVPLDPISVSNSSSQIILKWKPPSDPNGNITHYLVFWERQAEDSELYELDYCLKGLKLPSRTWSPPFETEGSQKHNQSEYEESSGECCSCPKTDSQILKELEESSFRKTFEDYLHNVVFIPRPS
T1 sequence (beta, as listed by the source limits assumed, stated change not applied, form in doubt, chain 2 of 2): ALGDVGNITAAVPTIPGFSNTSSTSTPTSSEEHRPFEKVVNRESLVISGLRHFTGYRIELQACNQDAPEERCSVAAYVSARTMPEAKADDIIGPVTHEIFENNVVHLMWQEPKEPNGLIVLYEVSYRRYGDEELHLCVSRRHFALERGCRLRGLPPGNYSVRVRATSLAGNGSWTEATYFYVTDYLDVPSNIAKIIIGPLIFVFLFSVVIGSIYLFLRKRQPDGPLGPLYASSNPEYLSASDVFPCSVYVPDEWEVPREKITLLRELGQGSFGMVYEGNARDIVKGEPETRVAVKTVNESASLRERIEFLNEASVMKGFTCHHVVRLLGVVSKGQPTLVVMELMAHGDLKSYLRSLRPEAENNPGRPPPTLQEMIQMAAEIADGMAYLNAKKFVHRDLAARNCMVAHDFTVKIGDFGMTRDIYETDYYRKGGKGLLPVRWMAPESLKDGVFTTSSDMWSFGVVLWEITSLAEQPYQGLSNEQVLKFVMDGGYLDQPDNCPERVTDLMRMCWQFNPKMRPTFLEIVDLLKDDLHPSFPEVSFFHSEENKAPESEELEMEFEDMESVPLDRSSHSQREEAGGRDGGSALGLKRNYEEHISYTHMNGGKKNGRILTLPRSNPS

EC50 (FFC) [1] | EC50 (FFC) rel. to HI [1] | Molecule | further results
7.7 nM | 0.8% | SLEEEWAQVECEVYGRCPSESFYDWFERQL [682] | 
> 2000 nM |  | YEEESFYGWFERQLGEE [732] | 
25 nM | 0.3% | Ac-SLEEEWAQIQAEVWGRGAPSESFYDWFERQL [672] | 
16 nM | 0.4% | SLEEHWAQVECEVYGRGCPSESFYDWFERQL [680] | 
15 nM | 0.4% | SLEEYWAQVECEVYGRGCPSESFYDWFERQL [689] | 
26 nM | 0.3% | SLEEEWAQVECEVYGRFCPSESFYDWFERQL [694] | 
7.7 nM | 0.8% | SLEEEWAQVECEVYGRHCPSESFYDWFERQL [692] | 
9.8 nM | 0.6% | SLEEEWAQVECEVYHRGCPSESFYDWFERQL [695] | 
13 nM | 0.4% | SLEEEWGQVECEVYGRGCPSESFYDWFERQL [681] | 
72 nM | 0.1% | SLEEHWHQVECEVYGRGCPSESFYDWFERQL [697] | 
2.1 nM | 2.9% | SLEEEWAQVECEVYGRNCPSESFYDWFERQL [683] | 
680 nM |  | SLEEEWAQHECEVYGRGCPSESFYDWFERQL [688] | 
190 nM | 0.03% | SLEEHWHQVECEVYHRHCPSESFYDWFERQL [698] | 
16 nM | 0.4% | SLEEVWAQVECEVYGRGCPSESFYDWFERQL [690] | 
75 nM | 0.1% | SLEEEWAQVECEVYGRVCPSESFYDWFERQL [693] | 
25 nM | 0.3% | SLEEEWYQVECEVYGRGCPSESFYDWFERQL [691] | 
15 nM | 0.4% | SLEEEWAQVECEVYQRGCPSESFYDWFERQL [684] | 
0.1 nM | 65% | Ac-SLEEEWAQIQCEVWGRGCPSESFYDWFERQLG (cysteine pairing not given here) [S671] | relative affinity [2]: 23; relative affinity [3]: 39; relative affinity [4]: 86; relative affinity [5]: 98; relative affinity [6]: 65
230 nM |  | Ac-SLEHEWAQIHCEVYGRGCPSESFYHWFERQL (cysteine pairing not given here) [674] | 
4.3 nM | 1.5% | Ac-SLEEEWAQVECEVYGRGCPSESFYDWFERQL (cysteine pairing not given here) [699] | 

More lines, now with the values behind:

Molecule | EC50 (FFC) [1] | EC50 (FFC) rel. to HI [1] | further results
Ac-SLEEEW[Aib]QIQCEVWGRGCPSESFYDWFERQL (cysteine pairing not given here) [compound 875] |  |  | Kd (HIR) rel. to HI (human IR (HIR)): 12%
Ac-SLEEEWAQIQCEVWGRGCPK(ε-carboxyfluorescein)ESFYGWFERQLG [compound 871] |  |  | Kd (HIR) rel. to HI (human IR (HIR)): 4%
Ac-SLE-Aib-EW-Aib-QIQCEVWGRPCPSEP-Dip-YGWFHEQLGPP [compound 874] |  |  | Kd (HIR) rel. to HI (human IR (HIR)): 8%
Ac-SLEHEW[Aib]QIQCEVWGRPCPSEP[Dip]YGWFHEQLGPP (cysteine pairing not given here) [compound 872] |  |  | Kd (HIR) rel. to HI (human IR (HIR)): 6%
Ac-SLE-Aib-EW-Aib-QIQCEVWGRGC-pox-FYGWFE-Aib-QLG [compound 806] |  |  | Kd (HIR) rel. to HI (human IR (HIR)): 3%
Ac-SLEEEWAQIQCEVWGRGC-pox-FYGWFERQLG [compound 802] |  |  | Kd (HIR) rel. to HI (human IR (HIR)): 6%
SLEHEWAQIQCEVWGRGCPSEPFYGWFLAQLG [compound 799] |  |  | Kd (HIR) rel. to HI (human IR (HIR)): 4%
SLEHEWAQIQCEVWGRGCPSEPFYGWFERQLG [compound 800] |  |  | Kd (HIR) rel. to HI (human IR (HIR)): 07%
Ac-SLEEEWAQIQCEVWG[Orn]GCPSESFYGWFERQLG (cysteine pairing not given here) [compound 805] |  |  | Kd (HIR) rel. to HI (human IR (HIR)): 24%
SLEEEWAQIEAEVWGRGAPPSESFYDWFERQLGY [649] | 14 nM | 0.4% | 
Ac-SLEEEWAQIQCEVWGRGCPSGGSTFEDYLHNVVFVPRPS (cysteine pairing not given here) [658] | ~1000 nM |  | 
Ac-SLEEEWAQIQCEVWGRGCPSEAFYDWFHEQLDD (cysteine pairing not given here) [662] | 2 nM | 3.3% | 
Ac-HGLEEEWAQIQCEVWGRGCPSESFYDWFEAQLHA (cysteine pairing not given here) [639] | 0.78 nM | 5% | 
Ac-SLEEEWAQIQCEVWGRGCQRPEPFYDWFERQL (cysteine pairing not given here) [S642] | 0.14 nM | 39% | 
Ac-SLEEEWAQIQCEVWGRGCPSESFYDWFEAQLHA (cysteine pairing not given here) [634] | 0.083 nM | 66% | 
Ac-HLEEEWSEIQCELWGRGCPSEDFYDWFEAQLHA (cysteine pairing not given here) [620] | 69 nM | 1% | 
HQLEEEWQAIQCELWGRGCPSEDFYDWFEAQLHA [616] | 1.5 nM | 4% | 
HELEEEWKRIECELWGRGCPSEDFYDWFEAQLHA [618] | 4.6 nM | 1% | 
Ac-SLEEEWAQIQCEVWGRGCQRPEPFYDWFAEQLDD (cysteine pairing not given here) [655] | 0.63 nM | 8.7% | 
HLEEEWSEIQCELWGRGCPSEDFYDWFEAQLHA [617] | 3.9 nM | 1% | 
GSLDESFYDWFERQLGKKY [670] | 850 nM |  | 
Ac-SLEEEWAQIQCEVWGRGCPSESFYGWFQAQL (cysteine pairing not given here) [668] | 2.3 nM | 2.8% | 
Ac-SLEEEWAQIECEVYGRGCPSEGFYNAIELLS (cysteine pairing not given here) [637] | 39 nM | 0.1% | 
Ac-SLEEEWAQIECEVYGRGCPSESFYHWFERQL (cysteine pairing not given here) [S665] | 1.9 nM | 3.4% | 
Ac-SLEEEWAQIQCELWGRGCPSESFYDWFERQL (cysteine pairing not given here) [643] | 0.097 nM | 57% | 

Reference: patent US20100298213A1, “Pharmaceutically Active Insulin Receptor-Modulating Molecules” (Novo Nordisk A/S, priority 2004, published 2010)
